US7030231 (University of California, dated 2006)

T1: inactive Ser805Ala His-tagged MT-SP1 protease domain
T1 chain: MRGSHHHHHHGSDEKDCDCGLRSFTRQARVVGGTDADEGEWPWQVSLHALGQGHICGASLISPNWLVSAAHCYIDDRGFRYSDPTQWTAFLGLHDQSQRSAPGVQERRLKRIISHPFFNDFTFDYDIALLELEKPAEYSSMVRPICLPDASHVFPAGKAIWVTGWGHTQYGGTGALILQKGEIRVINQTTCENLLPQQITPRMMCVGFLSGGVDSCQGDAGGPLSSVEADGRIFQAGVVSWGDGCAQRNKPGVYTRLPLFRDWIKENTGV

T2: His-tagged MT-SP1 protease domain (refolded, autoactivated, purified on p-aminobenzamidine resin) (human, UniProt Q9Y5Y6 615-855)
T2 construct: The split 596-614 / 615-855 follows from the stated construct limits and the stated cleavage site; also called His-MT-SP1 protease domain; MT-SP1 His-tagged protease domain
T2 sequence 1: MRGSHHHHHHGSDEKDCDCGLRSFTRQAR
T2 sequence 2: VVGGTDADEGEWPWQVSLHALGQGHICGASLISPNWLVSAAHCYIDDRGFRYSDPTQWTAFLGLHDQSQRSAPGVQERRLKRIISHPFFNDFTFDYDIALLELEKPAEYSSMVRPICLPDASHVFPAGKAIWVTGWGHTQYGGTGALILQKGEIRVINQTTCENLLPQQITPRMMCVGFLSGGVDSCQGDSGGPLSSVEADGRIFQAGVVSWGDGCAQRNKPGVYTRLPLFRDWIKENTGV

B1: His-tagged MT-SP1 protease domain (refolded, autoactivated, purified on p-aminobenzamidine resin) (protein)
chain 1: MRGSHHHHHHGSDEKDCDCGLRSFTRQAR
chain 2: T2 sequence 2
B2: ecotin M84R/M85R (other, E. coli (purified from E. coli), UniProt P23827 21-162, looked up)
chain: AESVQPLEKIAPYPQAEKGMKRQVIQLTPQEDESTLKVELLIGQTLEVDCNLHRLGGKLENKTLEGWGYDYYVFDKVSSPVSTRRACPDGKKEKKFVTAYLGDAGMLRYNSKLPIVVYTPDNVDVKYRVWKAEEKIDNAVVR
notes: They probably count on mature ecotin, not on the precursor with its signal peptide

Assays:
[1] = target: T1, inactive Ser805Ala His-tagged MT-SP1 …
[2] = target: T2, His-tagged MT-SP1 protease domain …; test: apparent Ki; inhibition of Spectrozyme tPA hydrolysis by 63 pM enzyme, fit to the tight-binding reversible inhibitor equation
Description: Ecotin and ecotin M84R/M85R were purified from *E. coli* as described in copending application Ser. Nos. 09/290,513 and 09/289,830, both filed on Apr. 12, 1999. Various concentrations of ecotin or ecotin M84R/M85R were incubated with the His-tagged serine protease domain in a total volume of 990 μL of buffer containing 50 mM NaCl, 50 mM Tris-HCl (pH 8.8), 0.01% Tween 20. 10 μL of Spectrozyme tPA was added, yielding a solution containing 100 μM substrate. The final enzyme concentration was 63 pM, and the ecotin and ecotin M84R/M85R concentration ranged from 0.1 nM to 50 nM. The data were fit to the equation derived for kinetics of reversible tight-binding inhibitors (Morrison (1969) *Biochim. Biophys. Acta* 185: 269–286, Williams and Morrison (1979) *Methods. Enzymol.* 63: 437–467), and the values for apparent K_i were determined.
The enzyme concentration was determined using an active site titration with MUGB. The catalytic activity of the protease domain was monitored using pNA substrates. Purified protease domain was tested for hydrolytic activity against tetrapeptide substrates of the form Suc-AAPX-pNA, which contained various amino acids at the P1 position (P1-Ala, Asp, Glu, Phe, Leu, Met, Lys, or Arg). The only substrates with detectable activity were those with P1-Lys or P1-Arg. The serine protease domain with the Ser^805Ala mutation had no detectable activity. […]

| Binder | cleavage monitored by SDS-PAGE [1] | Ki [2] [pM] |
| --- | --- | --- |
| B1 | This treatment results in the formation of a cleavage product that corresponds to the size of the active protease |  |
| B2 |  | 9.8 |
